Measured values as given in patent US20040068761.

Tested on: FLP recombinase
Test: cell_activity
Conditions: excision of y+ donor flanked by FRTs (33,668/33,790 w+ progeny lost y+), with I-SceI co-expressed in Drosophila

Substance: FRT (FLP recombination target) from yeast 2 micron plasmid
- activity: 99.6%
